Substitutions are numbered along the chain they refer to. In names and notes the source's numbering stands.
B1: CTK: COOH-terminal kinase domain of Drosophila TAF1, amino acids 1496-2132 (protein)
chain: LFPVSAKKVPDYYRVVTKPMDLQTMREYIRQRRYTSREMFLEDLKQIVDNSLIYNGPQSAYTLAAQRMFSSCFELLAEREDKLMRLEKAINPLLDDDDQVALSFIFDKLHSQIKQLPESWPFLKPVNKKQVKDYYTVIKRPMDLETIGKNIEAHRYHSRAEYLADIELIATNCEQYNGSDTRYTKFSKKILEYAQTQLIEFSEHCGQLENNIAKTQERARENAPEFDEAWGNDDYNFDRGSRASSPGDDYIDVEGHGGHASSSNSIHRSMGAEAGSSHTAPAVRKPAPPGPGEVKRGRGRPRKQRDPVEEVKSQNPVKRGRGRPRKDSLASNMSHTQAYFLDEDLQCSTDDEDDDEEEDFQEVSEDENNAASILDQGERINAPADAMDGMFDPKNIKTEIDLEAHQMAEEPIGEDDSQQVAEAMVQLSGVGGYYAQQQQDESMDVDPNYDPSDFLAMHKQRQSLGEPSSLQGAFTNFLSHEQDDNGPYNPAEASTSAASGADLGMDASMAMQMAPEMPVNTMNNGMGIDDDLDISESDEEDDGSRVRIKKEVFDDGDYALQHQQMGQAASQSQIYMVDSSNEPTTLDYQQPPQLDFQQVQEMEQLQHQVMPPMQSEQLQQQQTPQGDNDYAWTF
B2: CTK(D1538A): CTK with catalytically important aspartic acid of the S/T-kinase motif mutated to alanine (protein)
chain: B1 chain with D43A

Legend:
H2B-S33 = assay: In vitro kinase assay (γ32P-ATP, SDS-PAGE, autoradiography, scintillation counting); format: biochemical, Drosophila; settings: for H2B phosphorylation in vitro (qualitative): autoradiography; for Turnover values for phosphorylation of H2B-S33: 3 μg enzyme
Experimental: Kinase reactions were programmed with 1 μg RAP74, 1 μg recombinant histone, 2 μg polynucleosomes, 2 μg histone octamers, or 300 ng histone peptide, and contained 400 ng endogenous TFIID or 250 ng recombinant TAF1 derivatives and 0.25 μCi γ^32P-ATP. Reactions were performed in 20 μl kinase buffer (25 mM Hepes (pH 7.6), 10% glycerol, and 400 mM NaCl) for 25 min at 25° C. Reaction products were analyzed by SDS-PAGE using 8%—(for recombinant proteins), 15%—(for histones), or 18% (for peptides) gels. After electrophoresis, gels were dried and exposed to X-ray film.
To quantify kinase reactions, reactions products were separated by SDS-PAGE and detected by coomassie blue staining. Radiolabeled H2B was detected by autoradiography, excised from the gel, and analyzed by scintillation counting.
To measure the kinase activity of TFIID, TAF1, CTK, and mutant CTK-derivatives, reaction products of in vitro kinase assays were separated by SDS-PAGE and stained with coomassie blue. Radiolabeled H2B, H2BT and controls were excised from the gel and incorporation of radioactivity was determined by scintillation counting. Turnover values for phosphorylation of H2B-S33 were determined by measuring incorporation of radiolabeled phosphate groups into H2B in the presence of 3 μg TAF1, TFIID, or CTK-derivatives and 3 μg H2B or 12 μg nucleosomes. The turnover values were: TFIID (nucleosomes: 3.3/sec; H2B: 2.6/sec); TAF1: (nucleosomes: 2.5/sec; H2B: 2.5/sec); CTK: (nucleosomes: 2.6/sec; H2B: 4.4/sec).

acetylated H4 = target: T1, acetylated H4 (Homo sapiens, UniProt P62805); assay: Acetylated-lysine interaction assay; format: binding; settings: H4 peptide acetylated at lysine 5, 8, 12, 16
T1 construct: H4 peptide (amino acids 1-20); host or cells: H4 peptide made by chemical synthesis; Flag-CTK proteins made in Sf9 cells with baculovirus
Experimental: FIG. 6. (A) Silver stained gel corresponding to the autoradiograms shown inn FIG. 2B) of in vitro kinase assays containing γ^32P-ATP, native nucleosomes (top) or recombinant H2B (bottom), and TFIID, TAF1, or TAF1 derivatives (B) CTK(D1548A) binds acetylated histone H4. Western blot of protein:protein interaction assays. Anti-Flag antibody agarose beads loaded with recombinant Flag-CTK, Flag-CTK(D1548), or FLAG-110 (beads) were incubated with H4 peptide (amino acids 1-20) or H4 peptide [acetyl(H4)] acetylated at lysine 5, 8, 12, 16. Precipitated peptides were separated by SDS-PAGE, electrophoretically transferred onto nitrocellulose, and detected using antibodies to H4 (top) and acetylated H4 (bottom). (C) The CTK phosphorylates serine residues in H2BT. A schematic representation of H2BT is shown on top with highlighted positions of threonines (T) and serines (S). […]
The interaction of CTK and CTK(D1548A) with unmodified and acetylated H4 peptides was monitored as described (14, 15). […]

| Molecule | H2B phosphorylation in vitro (qualitative) (H2B-S33) | Turnover values for phosphorylation of H2B-S33 (H2B-S33; substrate 3 μg H2B) [s⁻¹] | Turnover values for phosphorylation of H2B-S33 (H2B-S33; substrate 12 μg nucleosomes) [s⁻¹] | binding to acetylated H4 in vitro (acetylated H4) |
| --- | --- | --- | --- | --- |
| B1 | strongly phosphorylated H2B | 4.4 | 2.6 |  |
| B2 | weak autophosphorylation and H2B trans-phosporylation activities |  |  | retains the ability to bind acetylated H4 in vitro |

From patent US20060115482A1, “Modifications of histone proteins as indicators of cell proliferation and differentiation” (The Regents of the University of California, priority 2004, published 2006)
